This note sets out measurements from the Immune Epitope Database (IEDB).

A word on the Kd: it is the constant that tells how readily two partners part at equilibrium. A word on the IC50: it is the concentration at which inhibition is half-maximal. High values mean a need for much substance, low ones inhibition by little substance.

Assay [1] concerns the target HLA-C*15:02. Nature of the assay: IEDB peptide-MHC binding, purified MHC/direct/fluorescence; filed as Kd, often an IC50 or EC50 that approximates it; ≥ and ≤ were set here for values at or beyond the usual limits of such assays.
The target in assay [2] is HLA-A*01:01. Put plainly: IEDB peptide-MHC binding, purified MHC/competitive/radioactivity; filed as Kd, often an IC50 or EC50 that approximates it; ≥ and ≤ were set here for values at or beyond the usual limits of such assays. Conditions: source organism: Dengue virus 4 Philippines/H241/1956.
In assay [3] the target is HLA-A*01:01. Nature of the assay: IEDB peptide-MHC binding, purified MHC/direct/fluorescence; filed as Kd, often an IC50 or EC50 that approximates it; ≥ and ≤ were set here for values at or beyond the usual limits of such assays. Conditions: source organism: Ebola virus - Gabon (1994-1997).
Assay [4] deals with HLA-A*02:03. Described as above.
The target of assay [5] is HLA-A*02:11. The assay is described as above.
Assay [6] has as its target HLA-A*02:12. The assay is described as above.
Assay [7] addresses HLA-A*02:16. The description is as above.
For assay [8], the target named is HLA-A*02:19. The description is as above.
Assay [9] deals with HLA-A*03:01. The assay is described as above.
The target in assay [10] is HLA-A*23:01. Described as above.
Assay [11] deals with HLA-A*24:03. The description is as above.
For assay [12], the target named is HLA-A*29:02. Described as above.
Assay [13] deals with HLA-A*68:02. Described as above.
Assay [14] has as its target HLA-C*05:01. The description is as above.
Assay [15] deals with HLA-A*02:01. Put plainly: IEDB peptide-MHC binding, purified MHC/competitive/fluorescence; filed as Kd, often an IC50 or EC50 that approximates it; ≥ and ≤ were set here for values at or beyond the usual limits of such assays.
The target of assay [16] is HLA-A*26:01. The assay is described as above.
Assay [17] deals with HLA-B*15:01. The assay is described as above.
The target of assay [18] is HLA-B*15:17. The description is as above.
The target of assay [19] is HLA-B*18:01. The assay is described as above.
Assay [20] deals with HLA-B*27:03. The assay is described as above.
Assay [21] has as its target HLA-B*39:01. Described as above.
For assay [22], the target named is HLA-B*46:01. Described as above.
Assay [23] concerns the target HLA-B*51:01. The description is as above.
For assay [24], the target named is HLA-B*57:01. Described as above.
The target in assay [25] is HLA-B*57:01. Put plainly: IEDB peptide-MHC binding, purified MHC/direct/fluorescence; filed as Kd, often an IC50 or EC50 that approximates it; ≥ and ≤ were set here for values at or beyond the usual limits of such assays.
For assay [26], the target named is HLA-B*58:01. The description is as above.
Assay [27] deals with HLA-C*06:02. The assay is described as above. Conditions: source organism: human gammaherpesvirus 4.
The target of assay [28] is HLA-A*02:01. Nature of the assay: IEDB peptide-MHC binding, purified MHC/competitive/fluorescence; ≥ and ≤ were set here for values at or beyond the usual limits of such assays. Conditions: source organism: West Nile virus NY-99.
For assay [29], the target named is HLA-A*31:01. Put plainly: IEDB peptide-MHC binding, purified MHC/direct/fluorescence; filed as Kd, often an IC50 or EC50 that approximates it; ≥ and ≤ were set here for values at or beyond the usual limits of such assays. Conditions: source organism: West Nile virus.
Assay [30] deals with HLA-B*07:02. Described as above. Conditions: source organism: West Nile virus.
Assay [31] concerns the target HLA-B*15:09. The description is as above. Conditions: source organism: West Nile virus strain PTRoxo.
The target in assay [32] is HLA-B*18:01. The assay is described as above. Conditions: source organism: West Nile virus.
For assay [33], the target named is HLA-B*27:05. The assay is described as above.
In assay [34] the target is HLA-B*40:01. The description is as above. Conditions: source organism: West Nile virus.
Assay [35] concerns the target HLA-B*44:02. The description is as above. Conditions: source organism: West Nile virus.
Assay [36] has as its target HLA-B*46:01. The description is as above. Conditions: source organism: West Nile virus.
Assay [37] has as its target HLA-B*48:01. The assay is described as above. Conditions: source organism: West Nile virus.
For assay [38], the target named is HLA-C*12:03. The assay is described as above. Conditions: source organism: West Nile virus.
Assay [39] deals with HLA-B*35:01. Put plainly: IEDB peptide-MHC binding, purified MHC/competitive/fluorescence; filed as Kd, often an IC50 or EC50 that approximates it; ≥ and ≤ were set here for values at or beyond the usual limits of such assays.
Assay [40] addresses HLA-A*69:01. The assay is described as above. Conditions: source organism: Orthohantavirus puumalaense.
[41] abbreviates: source organism: Zaire ebolavirus.
[42] abbreviates: source organism: Mycobacterium tuberculosis str. Haarlem.
The mark [43] stands for this setting: source organism: Giardia lamblia ATCC 50803.
Setting [44] is: source organism: West Nile virus.
The mark [45] stands for this setting: source organism: Orthohantavirus puumalaense.
Where [46] appears, read: source organism: Bacillus anthracis str. A0488.

As to FTTNIWMKF, the dissociation constant Kd in [1] (source organism: dengue virus type 4) is at least 20000 nM; in assay [2], 5.16 µM.
Turning to LSDLCNFLV, the Kd was 67.1 nM in [3]; at least 20 µM in assay [4] (setting [41]); at least 20 µM in assay [5] (setting [41]); at least 20 µM in assay [6] (setting [41]); at least 20 µM in [7] (setting [41]); at least 20 µM in assay [8] (setting [41]). The Kd was at least 20 µM in assay [9] (setting [41]); at least 20 µM in assay [10] (setting [41]); at least 20 µM in assay [11] (setting [41]); at least 20 µM in assay [12] (setting [41]); at least 20 µM in assay [13] (setting [41]); 13 nM in assay [14] (setting [41]). The Kd in [15] (setting [41]), in [16] (setting [41]), in assay [17] (setting [41]), in assay [18] (setting [41]), in [19] (setting [41]) and in [20] (setting [41]) was at least 20 µM each time. The Kd in assay [21] (setting [41]), in [22] (setting [41]), in assay [23] (setting [41]) and in assay [24] (setting [41]) was at least 20 µM throughout.
In the case of AYLFTPLFK, the Kd in assay [10] (setting [42]) is 0.356 µM; in assay [11] (setting [42]), 0.185 µM.
RTHEESLRL: the Kd in assay [25] (setting [43]) worked out at 2080 nM; in assay [26] (setting [43]), 1480 nM; in [1] (setting [43]), 50 nM.
Regarding VTDEGTSSF, the Kd in assay [14] (source organism: human gammaherpesvirus 4) was at most 1 nM; in assay [27] it was 332 nM.
For YTMDGEYRL, in assay [28], the IC50 was 291 nM. The Kd is at least 20 µM in assay [9] (setting [44]); at least 20 µM in [29]; at least 20 µM in assay [30]; at least 20 µM in assay [31]; at least 20 µM in assay [32]; at least 20000 nM in assay [33] (setting [44]). In addition, the dissociation constant (Kd) in assay [34] was at least 20 µM; in assay [35], at least 20 µM; in assay [36], at least 20 µM; in assay [37], at least 20 µM; in [25] (setting [44]) it was at least 20000 nM; in assay [26] (setting [44]), at least 20000 nM. The Kd was 347 nM in assay [38], 85 nM in [1] (setting [44]) and 0.00137 µM in assay [15] (setting [44]).
For TVSPSAPTY, the Kd was at least 20 µM in assay [36] and at most 0.1 nM in [39] (setting [44]).
With LRYGNVLDV, the Kd in assay [4] (source organism: Choclo virus), in assay [5] (source organism: Choclo virus), in assay [6] (source organism: Choclo virus), in assay [7] (source organism: Choclo virus), in [8] (source organism: Choclo virus) and in assay [9] (source organism: Choclo virus) was at least 20 µM each time. Also, the Kd in assay [10] (source organism: Choclo virus) was at least 20 µM; in [11] (source organism: Choclo virus) it was at least 20 µM; in assay [12] (source organism: Choclo virus), at least 20 µM; in [13] (source organism: Choclo virus), at least 20 µM; in assay [33] (source organism: Isla Vista hantavirus), 951 nM; in assay [15] (setting [45]), at least 20 µM. The Kd in assay [16] (setting [45]), in assay [40], in assay [17] (setting [45]), in assay [18] (setting [45]), in assay [19] (setting [45]) and in assay [20] (setting [45]) was at least 20 µM in each case. Also, the Kd in [21] (setting [45]), in assay [22] (setting [45]), in assay [23] (setting [45]) and in assay [24] (setting [45]) was at least 20 µM each time.
For the sequence MTVFSYKAF, the Kd came to 0.19 µM in assay [17] (setting [46]) and 154 nM in [39] (setting [46]).
KTWGQYWQV showed a Kd in assay [1] (source organism: Homo sapiens) of 49 nM.
